Measured values as given in patent US10738094B2, “Peptides and combination of peptides for use in immunotherapy against ovarian cancer and other cancers” (immatics biotechnologies GmbH, priority 2015, dated 2020).

Target: HLA-A*02:01 (Homo sapiens, UniProt P04439, D140Y/D185E/D98H/E176V/E277Q/G131W/G231S/I119V/I121R/I166T/I218V/L300P/L318F/N151K/N90K/P208A/P217A/Q86G/Q94H/R138H/R169H/T345S)
Assay: MHC binding assay (UV-ligand exchange, beta2m ELISA)
Settings: binding to HLA-A*02:01 ranged by peptide exchange yield (UV-ligand exchange, β2m ELISA)
Text: Candidate peptides for T cell based therapies according to the present invention were further tested for their MHC binding capacity (affinity). The individual peptide-MHC complexes were produced by UV-ligand exchange, where a UV-sensitive peptide is cleaved upon UV-irradiation, and exchanged with the peptide of interest as analyzed. Only peptide candidates that can effectively bind and stabilize the peptide-receptive MHC molecules prevent dissociation of the MHC complexes. To determine the yield of the exchange reaction, an ELISA was performed based on the detection of the light chain (β2m) of stabilized MHC complexes. The assay was performed as generally described in Rodenko et al. (Rodenko et al., 2006).
96 well MAXISorp plates (NUNC) were coated over night with 2 ug/ml streptavidin in PBS at room temperature, washed 4× and blocked for 1 h at 37° C. in 2% BSA containing blocking buffer. […] Peptide-MHC monomers of the UV-exchange reaction were diluted 100 fold in blocking buffer. Samples were incubated for 1 h at 37° C., washed four times, incubated with 2 ug/ml HRP conjugated anti-β2m for 1 h at 37° C., washed again and detected with TMB solution that is stopped with […]. Absorption was measured at 450 nm. Candidate peptides that show a high exchange yield (preferably higher than 50%, most preferred higher than 75%) are generally preferred for a generation and production of antibodies or fragments thereof, and/or T cell receptors or fragments thereof, as they show sufficient avidity to the MHC molecules and prevent dissociation of the MHC complexes.

Substance | Peptide exchange
39 (SVAPNLPAV; listed as Homo sapiens) [compound 39] | “+++” (≥50 = +++)
606 (ALWETEVYI; listed as Homo sapiens) [compound 606] | “+++” (≥50 = +++)
438 (KLLPLAGLYL; listed as Homo sapiens) [compound 438] | “++++” (≥75% = ++++)
53 (KMIETDILQKV; listed as Homo sapiens) [compound 53] | “++++” (≥75% = ++++)
299 (YLLETSGNL; listed as Homo sapiens) [compound 299] | “+++” (≥50 = +++)
116 (YHIDEEVGF; listed as Homo sapiens) [compound 116] | “+” (≥10% = +)
462 (KLAKQPETV; listed as Homo sapiens) [compound 462] | “+++” (≥50 = +++)
452 (ILLEHGADPNL; listed as Homo sapiens) [compound 452] | “+++” (≥50 = +++)
607 (RLYSGISGLEL; listed as Homo sapiens) [compound 607] | “+++” (≥50 = +++)
597 (KLLEGQVIQL; listed as Homo sapiens) [compound 597] | “+++” (≥50 = +++)
571 (LLLTTIPQI; listed as Homo sapiens) [compound 571] | “+++” (≥50 = +++)
488 (FLAEDPKVTL; listed as Homo sapiens) [compound 488] | “+++” (≥50 = +++)
427 (ALLPLSPYL; listed as Homo sapiens) [compound 427] | “+++” (≥50 = +++)
356 (KLLGKLPEL; listed as Homo sapiens) [compound 356] | “+++” (≥50 = +++)
31 (YLAPELFVNV; listed as Homo sapiens) [compound 31] | “++” (≥20% = ++)
513 (SLWPSPEQL; listed as Homo sapiens) [compound 513] | “++” (≥20% = ++)
432 (TLIEESAKV; listed as Homo sapiens) [compound 432] | “++” (≥20% = ++)
67 (TLLAEALVTV; listed as Homo sapiens) [compound 67] | “+++” (≥50 = +++)
387 (ALFQATAEV; listed as Homo sapiens) [compound 387] | “++++” (≥75% = ++++)
43 (VLSSLEINI; listed as Homo sapiens) [compound 43] | “++” (≥20% = ++)

Substance | Peptide exchange
317 (SLAALVVHV; listed as Homo sapiens) [compound 317] | “+++” (≥50 = +++)
184 (YLMDINGKMWL; listed as Homo sapiens) [compound 184] | “+++” (≥50 = +++)
34 (ILVEADSLWVV; listed as Homo sapiens) [compound 34] | “+++” (≥50 = +++)
192 (KMLDGASFTL; listed as Homo sapiens) [compound 192] | “+++” (≥50 = +++)
620 (KLLNKIYEA; listed as Homo sapiens) [compound 620] | “++++” (≥75% = ++++)
35 (KINDTIYEV; listed as Homo sapiens) [compound 35] | “+++” (≥50 = +++)
168 (KILDADIQL; listed as Homo sapiens) [compound 168] | “++++” (≥75% = ++++)
431 (SLVNVVPKL; listed as Homo sapiens) [compound 431] | “++” (≥20% = ++)
546 (VMIAGKVAVV; listed as Homo sapiens) [compound 546] | “+++” (≥50 = +++)
369 (GLFPEHLIDV; listed as Homo sapiens) [compound 369] | “+++” (≥50 = +++)
475 (LLLNEEALAQI; listed as Homo sapiens) [compound 475] | “+++” (≥50 = +++)
608 (SLLSVSHAL; listed as Homo sapiens) [compound 608] | “+++” (≥50 = +++)
344 (YLQDQHLLLTV; listed as Homo sapiens) [compound 344] | “+++” (≥50 = +++)
81 (FLFSQLQYL; listed as Homo sapiens) [compound 81] | “++” (≥20% = ++)
107 (FLQPVDDTQHL; listed as Homo sapiens) [compound 107] | “+++” (≥50 = +++)
84 (VTFGEKLLGV; listed as Homo sapiens) [compound 84] | “++” (≥20% = ++)
270 (LLLDEEGTFSL; listed as Homo sapiens) [compound 270] | “++” (≥20% = ++)
567 (SLLPLDDIVRV; listed as Homo sapiens) [compound 567] | “+++” (≥50 = +++)
99 (ALVSKGLATV; listed as Homo sapiens) [compound 99] | “++” (≥20% = ++)
556 (FLTDLEDLTL; listed as Homo sapiens) [compound 556] | “+++” (≥50 = +++)

Substance | Peptide exchange
201 (RLVDYLEGI; listed as Homo sapiens) [compound 201] | “+++” (≥50 = +++)
114 (SLVGEPILQNV; listed as Homo sapiens) [compound 114] | “++” (≥20% = ++)
560 (ALWDIETGQQTTT; listed as Homo sapiens) [compound 560] | “+++” (≥50 = +++)
136 (YLADPSNLFVV; listed as Homo sapiens) [compound 136] | “+++” (≥50 = +++)
454 (KLPPPPPQA; listed as Homo sapiens) [compound 454] | “+++” (≥50 = +++)
72 (SLLELDGINL; listed as Homo sapiens) [compound 72] | “+++” (≥50 = +++)
222 (NLIENVQRL; listed as Homo sapiens) [compound 222] | “++” (≥20% = ++)
15 (VLLTFKIFL; listed as Homo sapiens) [compound 15] | “++” (≥20% = ++)
224 (TLIDAQWVL; listed as Homo sapiens) [compound 224] | “+++” (≥50 = +++)
558 (GLLENIPRV; listed as Homo sapiens) [compound 558] | “+++” (≥50 = +++)
160 (FLFDEEIEQI; listed as Homo sapiens) [compound 160] | “+++” (≥50 = +++)
89 (YILPTETIYV; listed as Homo sapiens) [compound 89] | “++++” (≥75% = ++++)
306 (ALVNVQIPL; listed as Homo sapiens) [compound 306] | “+++” (≥50 = +++)
339 (GLWEIENNPTVKA; listed as Homo sapiens) [compound 339] | “++++” (≥75% = ++++)
29 (KMLGIPISNILMV; listed as Homo sapiens) [compound 29] | “+++” (≥50 = +++)
521 (MLLTKLPTI; listed as Homo sapiens) [compound 521] | “+++” (≥50 = +++)
570 (ALANQIPTV; listed as Homo sapiens) [compound 570] | “++” (≥20% = ++)
96 (YIFTDNPAAV; listed as Homo sapiens) [compound 96] | “+++” (≥50 = +++)
133 (KVLSNIHTV; listed as Homo sapiens) [compound 133] | “++” (≥20% = ++)
